Measurements reported in doi:10.1101/2023.01.08.523187 (bioRxiv, 2023).
Numbering of substitutions follows the chain as printed.

Columns and labels:
[1] = target: HER2 on HER2+ SK-OV-3 ovarian cancer cells (Homo sapiens, SK-OV-3 cells, UniProt P04626); assay: ELISA
Canine HER2 = Canine HER2 (Canis lupus familiaris, UniProt O18735); assay: SPR
[2] = target: Wildtype HER2 domain IV fragment (residues 510-629 of human HER2) (Homo sapiens, UniProt P04626); assay: SPR

B1: Candidate 2 (de novo designed HCDR3, IgG1 mAb) (antibody, V domains shown)
VH: EVQLVESGGGLVQPGGSLRLSCAASGFNIKDTYIHWVRQAPGKGLEWVARIYPTNGYTRYADSVKGRFTISADTSKNTAYLQMNSLRAEDTAVYYCARYYYGFYYFDYWGQGTLVTVSS
VL: not shown
**Q.** Which results are given for B1?
**A.** fold change of EC50 against trastuzumab [1]: ~3 fold; binding result (Canine HER2): binds

B2: Candidate 3 (de novo designed HCDR3, IgG1 mAb) (antibody, V domains shown)
VH: B1 VH with Y99W, Y100G, Y101N, G102Y, F103Y, F106M
VL: not shown
**Q.** Does B2 bind [2]?
**A.** binds
